The labels stand for the following.
B2: yeast septin complex (Cdc3, Cdc10, Cdc11, Cdc12) (complex, yeast (S. cerevisiae))
chain 1: MSLKEEQVSIKQDPEQEERQHDQFNDVQIKQESQDHDGVDSQYTNGTQNDDSERFEAAESDVKVEPGLGMGITSSQSEKGQVLPDQPEIKFIRRQINGYVGFANLPKQWHRRSIKNGFSFNLLCVGPDGIGKTTLMKTLFNNDDIEANLVKDYEEELANDQEEEEGQGEGHENQSQEQRHKVKIKSYESVIEENGVKLNLNVIDTEGFGDFLNNDQKSWDPIIKEIDSRFDQYLDAENKINRHSINDKRIHACLYFIEPTGHYLKPLDLKFMQSVYEKCNLIPVIAKSDILTDEEILSFKKTIMNQLIQSNIELFKPPIYSNDDAENSHLSERLFSSLPYAVIGSNDIVENYSGNQVRGRSYPWGVIEVDNDNHSDFNLLKNLLIKQFMEELKERTSKILYENYRSSKLAKLGIKQDNSVFKEFDPISKQQEEKTLHEAKLAKLEIEMKTVFQQKVSEKEKKLQKSETELFARHKEMKEKLTKQLKALEDKKKQLELSINSASPNVNHSPVPTKKKGFLR
chain 2: MDPLSSVQPASYVGFDTITNQIEHRLLKKGFQFNIMVVGQSGLGKSTLINTLFASHLIDSATGDDISALPVTKTTEMKISTHTLVEDRVRLNINVIDTPGFGDFIDNSKAWEPIVKYIKEQHSQYLRKELTAQRERFITDTRVHAILYFLQPNGKELSRLDVEALKRLTEIANVIPVIGKSDTLTLDERTEFRELIQNEFEKYNFKIYPYDSEELTDEELELNRSVRSIIPFAVVGSENEIEINGETFRGRKTRWSAINVEDINQCDFVYLREFLIRTHLQDLIETTSYIHYEGFRARQLIALKENANSRSSAHMSSNAIQR
chain 3: MSGIIDASSALRKRKHLKRGITFTVMIVGQSGSGRSTFINTLCGQQVVDTSTTILLPTDTSTEIDLQLREETVELEDDEGVKIQLNIIDTPGFGDSLDNSPSFEIISDYIRHQYDEILLEESRVRRNPRFKDGRVHCCLYLINPTGHGLKEIDVEFIRQLGSLVNIIPVISKSDSLTRDELKLNKKLIMEDIDRWNLPIYNFPFDEDEISDEDYETNMYLRTLLPFAIIGSNEVYEMGGDVGTIRGRKYPWGILDVEDSSISDFVILRNALLISHLHDLKNYTHEILYERYRTEALSGESVAAESIRPNLTKLNGSSSSSTTTRRNTNPFKQSNNINNDVLNPASDMHGQSTGENNETYMTREEQIRLEEERLKAFEERVQQELLLKRQELLQREKELREIEARLEKEAKIKQEE
chain 4: MSAATATAAPVPPPVGISNLPNQRYKIVNEEGGTFTVMLCGESGLGKTTFINTLFQTVLKRADGQQHRQEPIRKTVEIDITRALLEEKHFELRVNVIDTPGFGDNVNNNKAWQPLVDFIDDQHDSYMRQEQQPYRTKKFDLRVHAVLYFIRPTGHGLKPIDIETMKRLSTRANLIPVIAKADTLTAQELQQFKSRIRQVIEAQEIRIFTPPLDADSKEDAKSGSNPDSAAVEHARQLIEAMPFAIVGSEKKFDNGQGTQVVARKYPWGLVEIENDSHCDFRKLRALLLRTYLLDLISTTQEMHYETYRRLRLEGHENTGEGNEDFTLPAIAPARKLSHNPRYKEEENALKKYFTDQVKAEEQRFRQWEQNIVNERIRLNGDLEEIQGKVKKLEEQVKSLQVKKSHLK
notes: Cdc3, yeast septin; Cdc10, yeast septin; Cdc11, yeast septin; Cdc12, yeast septin; Octamer at high salt (500 mM NaCl), filaments at low salt (100 mM NaCl); also called septin octamers; septin filaments; source: expressed and purified as described earlier (Farkasovsky et al., 2005); copies: 2 + 2 + 2 + 2

Series [1] deals with the molecule itself. Nature of the series: SEC; gel filtration of purified Gic1(104-314) alone against protein standards; calculated 23.38 kDa, elutes at 49 kDa; monomer to dimer.
For series [2], the target named is T1, septin-Cdc10(30-322) complex (Cdc3, Cdc10(30-322), Cdc11, Cdc12) (yeast (S. cerevisiae), UniProt P32457 1-520; P25342 30-322; P32458 1-415; P32468 1-407).
T1 construct: Cdc3, yeast septin; Cdc11, yeast septin; Cdc12, yeast septin; Seen by EM as tetramers or inside-out octamers; no filaments at low salt; also called polymerization-impaired septin complexes; non-polymerizing septin; copies: + + +
Nature of the series: negative-stain electron microscopy with single particle analysis; 0.3 µM septin hetero-oligomers, alone or with 1.5 µM Gic1, dialysed overnight at 4°C from high-salt buffer against low-salt buffer (100 mM NaCl, 20 mM Tris-HCl pH 7.5, 1 mM DTT); antibody labelling against Cdc11; adsorbed to a lipid monolayer. The settings on record: both partners purified.

Series [3] addresses B2. Described as above. Conditions: both partners purified.
Series [4] concerns the target T2, septin-Cdc11Δ complex (Cdc3, Cdc10, Cdc12) (yeast (S. cerevisiae), UniProt P32457 1-520; P25342 1-322; P32468 1-407).
T2 construct: Cdc3, yeast septin; Cdc10, yeast septin; Cdc12, yeast septin; Septin complex devoid of the Cdc11 subunit; copies: + +
T2 sequence (looked up) 1: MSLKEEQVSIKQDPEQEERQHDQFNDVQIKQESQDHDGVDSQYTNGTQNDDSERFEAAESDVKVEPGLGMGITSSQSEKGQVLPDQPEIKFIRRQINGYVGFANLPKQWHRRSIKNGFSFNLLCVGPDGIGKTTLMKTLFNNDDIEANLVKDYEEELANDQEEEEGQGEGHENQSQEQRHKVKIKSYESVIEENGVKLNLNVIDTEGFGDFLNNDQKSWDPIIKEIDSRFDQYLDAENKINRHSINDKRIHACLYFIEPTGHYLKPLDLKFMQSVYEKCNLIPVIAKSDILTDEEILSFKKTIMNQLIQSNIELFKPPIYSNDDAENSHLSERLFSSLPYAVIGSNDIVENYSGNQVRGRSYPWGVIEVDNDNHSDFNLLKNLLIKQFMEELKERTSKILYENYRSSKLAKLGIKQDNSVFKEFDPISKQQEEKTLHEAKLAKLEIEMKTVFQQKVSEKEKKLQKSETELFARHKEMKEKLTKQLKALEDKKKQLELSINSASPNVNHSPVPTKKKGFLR
T2 sequence (looked up) 2: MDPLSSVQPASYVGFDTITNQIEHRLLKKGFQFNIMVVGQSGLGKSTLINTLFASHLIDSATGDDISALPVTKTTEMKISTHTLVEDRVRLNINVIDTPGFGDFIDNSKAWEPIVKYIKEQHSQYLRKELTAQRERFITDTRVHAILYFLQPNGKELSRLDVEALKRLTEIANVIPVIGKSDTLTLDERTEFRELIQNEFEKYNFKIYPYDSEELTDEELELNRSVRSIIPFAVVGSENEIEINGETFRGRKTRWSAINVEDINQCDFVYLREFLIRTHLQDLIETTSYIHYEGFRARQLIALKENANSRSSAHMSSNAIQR
T2 sequence (looked up) 3: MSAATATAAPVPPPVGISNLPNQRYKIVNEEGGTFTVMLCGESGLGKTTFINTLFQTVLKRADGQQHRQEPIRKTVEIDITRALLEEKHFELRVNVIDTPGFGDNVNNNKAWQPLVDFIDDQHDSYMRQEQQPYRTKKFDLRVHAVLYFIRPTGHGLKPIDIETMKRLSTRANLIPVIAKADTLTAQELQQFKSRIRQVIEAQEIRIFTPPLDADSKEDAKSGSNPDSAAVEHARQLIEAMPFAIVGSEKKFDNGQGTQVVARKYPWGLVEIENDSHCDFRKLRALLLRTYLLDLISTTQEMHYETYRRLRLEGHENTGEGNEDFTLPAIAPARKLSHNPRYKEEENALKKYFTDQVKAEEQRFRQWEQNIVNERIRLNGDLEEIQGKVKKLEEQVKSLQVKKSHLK
The series is described as above. Conditions: both partners purified.

Series [5] addresses T3, Cdc10(30-322) (subunit of the septin-Cdc10(30-322) complex) (yeast (S. cerevisiae), UniProt P25342 30-322).
T3 construct: Never tested alone: it stood inside the complex m5
T3 sequence (looked up): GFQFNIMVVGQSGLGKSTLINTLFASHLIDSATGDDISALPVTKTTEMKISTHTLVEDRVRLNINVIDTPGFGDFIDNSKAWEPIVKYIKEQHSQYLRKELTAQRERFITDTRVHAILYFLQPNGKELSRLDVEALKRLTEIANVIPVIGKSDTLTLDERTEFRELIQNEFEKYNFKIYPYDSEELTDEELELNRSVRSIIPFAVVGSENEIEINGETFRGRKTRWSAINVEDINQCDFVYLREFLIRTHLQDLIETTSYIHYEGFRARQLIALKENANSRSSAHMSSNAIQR
The description is as above. Conditions: both partners purified.

Series [6] deals with T4, Cdc10 (subunit of the purified yeast septin complex) (yeast (S. cerevisiae), UniProt P25342 1-322).
T4 construct: Cdc10, yeast septin; Never tested alone: it stood inside the complex m2; the subunit that is touched was assigned from antibody labelling, complexes lacking subunits and the known order of the subunits; source: subunit of the septin complex expressed and purified as described earlier (Farkasovsky et al., 2005)
T4 sequence (looked up): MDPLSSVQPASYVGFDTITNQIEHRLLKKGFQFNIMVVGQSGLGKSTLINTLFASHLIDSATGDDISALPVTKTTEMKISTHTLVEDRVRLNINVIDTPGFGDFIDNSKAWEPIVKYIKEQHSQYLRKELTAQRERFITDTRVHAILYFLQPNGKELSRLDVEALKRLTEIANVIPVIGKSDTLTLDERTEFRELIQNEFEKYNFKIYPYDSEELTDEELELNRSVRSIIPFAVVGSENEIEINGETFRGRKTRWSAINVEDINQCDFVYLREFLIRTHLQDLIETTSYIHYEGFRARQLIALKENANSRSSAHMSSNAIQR
Described as above. Conditions: both partners purified.

Series [7] deals with the molecule itself. Nature of the series: negative-stain electron microscopy with single particle analysis; 0.1 µM septin octamers, with or without 0.5 µM Gic1; Cdc42-GppNHp or Cdc42-GDP at the concentration of Gic1 or 10 times higher (0.25, 1.5, 5 µM), 2 to 60 min; antibody labelling against Cdc3.

Broadly, the stoichiometry N is the number of molecules, sites or subunits per partner or assembly.

B1: Gic1(104-314) (domain or fragment, yeast (S. cerevisiae), UniProt P38785 104-314, looked up)
chain: MFKKKDLLSRRHGSAKTAKQSSISTPFDFHHISHANGKREDNPLESHEEKHDVESLVKFTSLAPQPRPDSNVSSKYSNVVMNDSSRIVSSSTIATTMDSHHDGNETNNTPNGNKQLDSPTDLEMTLEDLRNYTFPSVLGDSVSEKTNPSSPSVSSFSGKFKPRELSALHTPELGNCFNVDQSLNSPGNRISVDDVLKFYYQCSETSTPRNT
notes: Gic1, yeast, residues 104-314 (N-terminal 103 amino acids deleted); gic1(310-942) in nucleotides; contains the CRIB domain and the C-terminus; Called simply Gic1 throughout the text; The methods say GST was cleaved with thrombin; Dimer by gel filtration; source: E. coli BL21 (DE3) Rosetta, purified (Ni-NTA, glutathione sepharose, Superdex S200)
For B1, the “stoichiometry N” value in series [1] was approximately 2. Also, the binding result in series [2], in series [3], in series [4], in series [5] and in series [6] was “binds” each time.
For B2, the binding result in series [7] is “binds”.

Source of the values: publication PMC3840788, “The role of Cdc42 and Gic1 in the regulation of septin filament formation and dissociation” (eLife, 2013).
